# Source: patent JP2024051908A (dated 2024)
# How the values were obtained:
# Assay in all cases: cell-based or functional assay
# [1] = target: SARS-CoV-2 D614G変異株のスパイクタンパク質 (authentic virus) (SARS-CoV-2 D614G, UniProt P0DTC2 14-1273)
# [2] = target: SARS-CoV-2 Delta変異株のスパイクタンパク質 (authentic virus) (SARS-CoV-2 Delta)
# [3] = target: SARS-CoV-2 オミクロンBA.1変異株のスパイクタンパク質 (authentic virus) (SARS-CoV-2 Omicron BA.1)
# [4] = target: SARS-CoV-2 オミクロンBA.1.1変異株のスパイクタンパク質 (authentic virus) (SARS-CoV-2 Omicron BA.1.1)
# [5] = target: SARS-CoV-2 オミクロンBA.2変異株のスパイクタンパク質 (authentic virus) (SARS-CoV-2 Omicron BA.2)
# [6] = target: SARS-CoV-2 オミクロンBA.5変異株のスパイクタンパク質 (authentic virus) (SARS-CoV-2 Omicron BA.5)
binder,measurement,setting,value
"MO1 (antibody, V domains shown) VH: EVQLVESGGGMVQPGRSLRLSCAASGFTFDDYAMHWVRQIPGKGLEWVSGISWNSGDIGYADSVKGRFTISRDNAKNSLHLQMNSLRAEDTALYYCAKDKTYDSPGYFLNSFDYWGQGTLVTVSS VL: DIQMTQSPSSLSASVGDRVTITCRASQGISSYLVWYQQKPGKAPKFLIYAASTLQSGVPSRFSGSGSGTDFTLTISSLQPEDFATYYCQQLYSYPITFGQGTRLEIK","IC50, プラーク減少中和試験 (PRNT)",[1],0.0236 µg/mL
same,"IC50, プラーク減少中和試験 (PRNT)",[2],0.0158 µg/mL
same,"IC50, プラーク減少中和試験 (PRNT)",[3],0.004 µg/mL
same,"IC50, プラーク減少中和試験 (PRNT)",[4],0.0106 µg/mL
same,"IC50, プラーク減少中和試験 (PRNT)",[5],0.0203 µg/mL
same,"IC50, プラーク減少中和試験 (PRNT)",[6],0.0157 µg/mL
"MO2 (antibody, V domains shown) VH: EVQLVESGGGLVKPGGSLSLSCVASGFTFSDYRMSWIRQAPGKGLEWVSYISSSSGYKDYADSVKGRFTISRDNAKNSLSLQMNSLRVEDTAVYYCARDVGVVTATPGYWGQGVPVSVSS VL: DIVMTQSPATLSVSPGERATLSCRASQSVGSNLAWYQQKPGQAPRLLIYDTSTRATGVPARFSGSGSGTDFTLTISSLQSEDFAVYLCHQYDQWPPAFGPGTRVDIK","IC50, プラーク減少中和試験 (PRNT)",[1],0.0658 µg/mL
same,"IC50, プラーク減少中和試験 (PRNT)",[2],0.0882 µg/mL
same,"IC50, プラーク減少中和試験 (PRNT)",[3],0.0177 µg/mL
same,"IC50, プラーク減少中和試験 (PRNT)",[4],0.036 µg/mL
same,"IC50, プラーク減少中和試験 (PRNT)",[5],0.151 µg/mL
